Data taken from article PMC3097154 (2011).

Molecular target: the molecule itself
Test: ITC

B1: HIV-1 capsid CTD CTD (protein)
chain: not shown
  Kd: ~15 µM
